# Reference: US20130195866
# Target: T1, NFATc4 (nuclear factor of activated T cells), endogenous in mouse cortical neurons (UniProt Q8K120)
# T1 sequence: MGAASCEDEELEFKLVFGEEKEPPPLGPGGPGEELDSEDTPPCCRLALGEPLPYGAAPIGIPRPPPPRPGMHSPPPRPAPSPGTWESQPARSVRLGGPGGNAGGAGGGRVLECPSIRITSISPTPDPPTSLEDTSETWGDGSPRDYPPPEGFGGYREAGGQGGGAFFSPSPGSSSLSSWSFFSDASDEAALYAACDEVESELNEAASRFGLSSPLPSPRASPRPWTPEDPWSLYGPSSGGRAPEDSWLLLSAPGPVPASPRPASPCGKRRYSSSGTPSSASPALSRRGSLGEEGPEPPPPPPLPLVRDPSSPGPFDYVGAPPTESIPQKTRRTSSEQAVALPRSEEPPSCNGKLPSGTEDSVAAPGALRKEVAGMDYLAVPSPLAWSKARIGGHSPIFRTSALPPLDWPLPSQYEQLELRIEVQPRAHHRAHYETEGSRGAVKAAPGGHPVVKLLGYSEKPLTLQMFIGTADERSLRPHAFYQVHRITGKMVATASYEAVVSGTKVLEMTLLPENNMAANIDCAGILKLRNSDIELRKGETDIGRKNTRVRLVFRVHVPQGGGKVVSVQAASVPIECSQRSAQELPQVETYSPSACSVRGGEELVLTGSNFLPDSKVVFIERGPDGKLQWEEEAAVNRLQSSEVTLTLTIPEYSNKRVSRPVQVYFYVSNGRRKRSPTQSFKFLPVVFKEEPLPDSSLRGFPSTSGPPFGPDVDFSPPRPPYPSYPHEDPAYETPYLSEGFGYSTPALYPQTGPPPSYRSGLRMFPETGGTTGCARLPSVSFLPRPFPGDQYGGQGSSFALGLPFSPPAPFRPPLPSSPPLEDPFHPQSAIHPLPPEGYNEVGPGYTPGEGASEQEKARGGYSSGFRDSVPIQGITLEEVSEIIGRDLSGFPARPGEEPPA
substance,measurement,value
"HA-tagged constitutively active calcineurin, CaNCA (mouse CaN amino acid residues 1-399, 45 kDa form)",NFATc4 nuclear distribution in neurons of injected mouse brain,CaNCA-expressing neurons showed high levels of NFATc4 nuclear distribution (data not shown)
